Fewer inactive variants are shown than the library holds.
B1: TPR 5TU (parent)
chain: GGAUCUUCUCGAUCUAACAAAAAAGACAAAUCUGCCACAAAGCUUGAGAGCAUCUUCGGAUGCAGAGGCGGCAGCCUUCGGUGGCGCGAUAGCGCCAACGUUCUCAACUAUGACACGCAAAACGCGUGCUCCGUUGAAUGGAGUUUAUCAUG

Variants of: B1
Experiment: polymerase ribozyme fitness, log enrichment relative to wild type (log ratio); higher = more active; in vitro selection for triplet polymerase activity
Outline: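 A heterodimeric triplet polymerase ribozyme had each of its subunits mutagenized by PCR into a library, which was transcribed. One round of in vitro selection, done in triplicate, annealed each library with a biotinylated primer, its partner subunit and triplets, then incubated it frozen at −7 °C before gel excision of extended constructs, streptavidin-bead capture and RT-PCR. Fitness is the logarithm of genotype enrichment relative to wild-type enrichment, based on Illumina sequencing of inputs and outputs and inverse-variance-weighted replicate averages. A base-2 logarithm is used, and genotypes were kept only with ≥10 input reads and ≥1 read per output.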

Variant | polymerase ribozyme fitness (log ratio)
U6G C63U A89C | -0.961
U6G A12U A23G C38A G83U U90G C95A | ≤ -4.2
U6G A52C | -0.94
U6G G48U G58A C76G U82C C93U A122C A138G A142G | ≤ -4.2
U6G G25U G50C G92A | ≤ -4.2
U6G A29C A73U G86U | ≤ -4.2
U7C A23G U82G G83A U146G A150G G152C | ≤ -4.2
U6A C93A | -2.58
U6C C8U U15G | -2.42
U6C A21U U101A U104A U148A | ≤ -4.2
U6G G50U C95U | 0.0133
U6G A12U A28C G65U U127G | ≤ -4.2
U6G C85U | -0.35
U6G C85A | -1.09
U6C C63U A138G | -4.08
U6A U56A | -0.431
U7A A20U U31G C116U | -3.58
U7A G83A A121G U145G U148G | ≤ -4.2
U6C C10G | -3.97
U7C A73G U82A G136C | ≤ -4.2
U6A C87U | -0.846
U7A A60G C85U U144C | -3.61
U7A A26G C75G C93A | -4.13
U6G A28U C72U C87A | ≤ -4.2

Variant | polymerase ribozyme fitness (log ratio)
U7C C18G C43G G48A G58C C63U C76G | ≤ -4.2
U7A C75U G94C A122G U145A | -3.63
U6C C54G C93A C116G G141A | -4.17
U6C A89G C96U U135C G140U | ≤ -4.2
U7A A19C G92C C105A A115U C116U A137U | ≤ -4.2
U6G A22G U139A | ≤ -4.2
U6G U13G U44A A60G C69G C93A C118A | ≤ -4.2
U6G U7C A20U A39G A40C G42C G59A G92U C93G A115U C116U | ≤ -4.2
U6A U7C G83A C125A | -3.64
U6G A21U A26G A40C A66G A107U U135A G141A | ≤ -4.2
U6G A40U A66G U82A C96A G100U | ≤ -4.2
U6C A47C C85A | -3.96
U6C A24C G86U U104G C125U | ≤ -4.2
U6G C63U G83U A98U A122U | -0.875
U6C C27U U145C | -3.08
U6C C95U A98U C99U | -2.4
U6A C14U A91C A150U | ≤ -4.2
U7A C79G G94C C114A C118G | ≤ -4.2
U7A A73G C87G C131A | ≤ -4.2
U6G U13G A16G C85G G86A A142G | ≤ -4.2
U6G U134C | -0.128
U6G G11A G48U G50U A66G U90A G100U U102A A122C | ≤ -4.2
U6G G50U C85U C116U | 0.202
U6G G48C A52G C96A A121U G140A | ≤ -4.2

Variant | polymerase ribozyme fitness (log ratio)
U6G C57A C85A C95U | -0.326
U7A C43U A49G A110G | ≤ -4.2
U6A C8A A19U A20U C72U U77A U101A | ≤ -4.2
U6G A23U A73G C76A A98G C105G A113C A119G | ≤ -4.2
U6C A47C G81C C87G C96U | ≤ -4.2
U6G C35U C75A A98G A121U | ≤ -4.2
U7A G71A C96G | ≤ -4.2
U6C C8A U111G G143C | ≤ -4.2
U7A C93G A113U A138C | ≤ -4.2
U6G C99G G141C | -2.05
U7A C54A C72A | ≤ -4.2
U6G G65U G71C G94A C103G A122G | ≤ -4.2
U7A G94C U111C U135A A138U | -3.87
U7A A26G U31C G50U A73C G86A U104G | ≤ -4.2
U7A U53A U56A | ≤ -4.2
U7A A17C A142C | -3.31
U6G A39C C85A A98G G126C | -3.91
U6A A26C A122C | -2.04
U6C U31G G50C C69G G94C A119U U151A | ≤ -4.2
U6A A37G G80A C87A U102G G152A | ≤ -4.2
U7C C10U U55A G62A G65C U78G C96A | ≤ -4.2
U6C U61A A73C C85G | ≤ -4.2
U6C A49G G59A G92A U111A | ≤ -4.2
U6G A41C A49G C95G | -2.03

Variant | polymerase ribozyme fitness (log ratio)
U6G C8A G48A U56G C75U G80C G83U G92U C93A C99U G100U | ≤ -4.2
U7A U33G C79A C116U U144C | ≤ -4.2
U7A U55A C85U C114A G136C | ≤ -4.2
U6C U33G U56C G81C C95U | ≤ -4.2
U6G A28C C76G G92U | ≤ -4.2
U6G C57G C85U A98U | -1.17
U6A G25U | -1.78
U6C A73U G84A G100U G124A C125G U145G | ≤ -4.2
U6A G11A U45A U53G C76U U90G C118U | ≤ -4.2
U6G A20U A41U U44A U55G G83A G88U A98U A121G U145A | ≤ -4.2
U6G A20U C93A C116A U135A | -3.29
U6A U90G C95U U109G A137C | ≤ -4.2
U7A A22C A24U C54G G83A | ≤ -4.2
U6G G83A | -0.0531
U7C C18G G94A G117C | -3.67
U6C A60G G117U | -1.75
U6C C32A A49U G70U U82G C87U C105G | ≤ -4.2
U6G A30C C43G A52C C54U U77A C85G A119G U148G | ≤ -4.2
U6G U44G A47U U53C A64C C103A | ≤ -4.2
U6A A23U A30U G46A A47C | ≤ -4.2
U6C G94A C105U U127A | ≤ -4.2
U6A A52C G81U C85G | -3.49
U6C U56C A89C A121U | -2.59
U6A U9G C35G A60G C69G G88C C96A | ≤ -4.2

Variant | polymerase ribozyme fitness (log ratio)
U7A A29U C35U A66C U82G A113U | -3.86
U6G A22U C85A | -0.601
U6G C8G A47C G59U A91C C96G C132G G133A | ≤ -4.2
U6G A40U A49U A66C G94U A98U U134C G140A | ≤ -4.2
U6A C38U U44A U82G C85U C95A U101G | ≤ -4.2
U7C A17G A119U | -3.03
U6C A23G A91U A106G | ≤ -4.2
U7A U9A A98G A121G | ≤ -4.2
U7C C18G G86A U148A | -4.2
U6C C54U C76U | -2.15
U6G C51U G84A U146G | -1.28
U6C C93G | -3.54
U7A G92U | -3.96
U6G A29U A73G U77C C95U A107U | ≤ -4.2
U7C A19C C57G C85U C96U U148A | ≤ -4.2
U7A C8U A73G G81A G83A C96A A119U G124C | ≤ -4.2
U7A C14G U45A G50A C57A G71C A110U G112U C125G C132U | ≤ -4.2
U6G C96U | -0.759
U6G U31G G84U | -0.345
U6C A37C C93U | -3.12
U7C C18U U61C C69A C93A C114U | ≤ -4.2
U6A G81C G94U C125U | -2.57
U7C A23U C87A A89G C116U C125U | ≤ -4.2
U6A G42C A49C A52C C75U C85U A91U | ≤ -4.2

Variant | polymerase ribozyme fitness (log ratio)
U7A A20C C93G C116G U135G | ≤ -4.2
U7C A20C A49C U77C A91U | ≤ -4.2
U7C A24U C96U A107G C125G U144C U151C | -4.07
U7C C8A C32U A91U A121G U134C | ≤ -4.2
U6G G86C U135G | ≤ -4.2
U6C U7G A49G A66C G74A C96G | ≤ -4.2
U6G U55G G92A | -3.71
U6G U55A | 0.402
U6G A40U U56A C93U A106C | -1.92
U6A C8A A12G C43U A64C G86C C87A | ≤ -4.2
U6G C10U A12U U33G A37U C95A U135A G141U U144C | ≤ -4.2
U6C A17U A64U A73U C85G U127A U130G A142G | ≤ -4.2
U6G A12U A28C A40C G94C | ≤ -4.2
U6G A41U U45C | -2.17
U6A U44G A98U A107U | -1.58
U6A C35A U104C | -3.88
U6A U56A U82G C103U | -1.06
U6C A21U U55A G58A G86A | -3.18
U6G C10G A21G G71A C76U C85A | ≤ -4.2
U7C A24U G84U C87G A107C G112U G133U | ≤ -4.2
U7A A16U A20G G48A C57A G58U A64G C87A G92U G126A C129A A137C | ≤ -4.2
U6C U82A C99U G136U | -3.43
U6G A21U G94A U104G U127A | ≤ -4.2
U6G C85A C125G | -0.955

Variant | polymerase ribozyme fitness (log ratio)
U6A G86C | -2.98
U6G G81C A91G | -2.46
U6A G86A C87G | ≤ -4.2
U7A U31G G81C G84U C95U A107G G128U A137G | ≤ -4.2
U7A A29C C85U C87U G143C A150G | ≤ -4.2
U7A C8G U13G U90G C95G U134A | ≤ -4.2
U7A G94A | -3.07
U6C A16G A24U C96A C118U | -3.92
U6A G58U U61A A66G U82C U139C G152A | ≤ -4.2
U6G G141A | 0.243
U6C G83C A91C U145C | ≤ -4.2
U6G A12U A22U A64U G88C C95U | ≤ -4.2
U7C A16U A49G G92C | ≤ -4.2
U7A A21U G25U U44A A49C C54A C63G C85U G86U C99G | ≤ -4.2
U6C A40U U56A G59U C87U A98U C118U | -0.984
U7A A23C C36A U56A A91U C132G | -3.78
U6C C27U G50C A52G G58A C87U | ≤ -4.2
U7A A121U A138G | ≤ -4.2
U6A A22C G50A U61G C79U C85A G143U A147C | ≤ -4.2
U6G U53C G92C U144C | -1.5
U6A U7G C36U C85A U144A | ≤ -4.2
U6A U146G A150G G152A | -1.38
U6A U55A | -1.4
